Target: human DOT1L^CC2 (second coiled-coil domain of DOT1L) (human) (UniProt Q8TEK3)
Experiment: SEC

Substance: human DOT1L^CC2 (second coiled-coil domain of DOT1L) (from UniProt Q8TEK3 1-1537) (domain or fragment)
- stoichiometry N: 2

Reference: PMC5900708
